How the values were obtained:
[1] = molecular target: human CD40 receptor, stably expressed on HEK293 (HEK-Blue) reporter cells (human) (UniProt P25942)
[2] = molecular target: T1, mouse CTLA-4 (mouse, UniProt P09793 36-161); assay: ELISA on immobilized mCTLA-4; supernatant of Vero cells infected with mJP-OV-2 (FIG. 33)
T1 construct: also called mCTLA-4

Molecule | EC50 (read off the curve), CD40 reporter cells, OD 650 nM [1] [ng/mL] | binding result [2]
hCD40ag (human CD40 agonist payload; Fc-less trimer of single-chain CD40L ectodomain trimer bundles with T4 fibritin trimerization motif), purified (ligand) | 3 | –
mαCTLA-4 (mouse surrogate anti-CTLA-4 antagonist payload; anti-CTLA-4 VHH fused to the heavy chain of mouse IgG2a Fc), expressed from mJP-OV-2 (Fc fusion, also called Mouse CTLA-4 antagonist payload; OVTSB24) QVQLVESGGGLAQPGGSLRLSCAASGSTISSVAVGWYRQTPGNQREWVATSSTSSTTATYADSVKGRFTISRDNAKNTIYLQMNSLKPEDTAVYYCKTGLTNWGRGTQVTVSSEPRGPTIKPCPPCKCPAPNLLGGPSVFIFPPKIKDVLMISLSPIVTCVVVDVSEDDPDVQISWFVNNVEVHTAQTQTHREDYNSTLRVVSALPIQHQDWMSGKEFKCKVNNKDLPAPIERTISKPKGSVRAPQVYVLPPPEEEMTKKQVTLTCMVTDFMPEDIYVEWTNNGKTELNYKNTEPVLDSDGSYFMYSKLRVEKKNWVERNSYSCSVVHEGLHNHHTTKSFSRTPGK | – | binds
